The text below walks through data of paper PMC5130018 (2016).

B1: WH-biotin (peptide WH with GGGK-biotin at the carboxyl terminal) [modified: biotin on the C-terminal lysine (GGGK-biotin); biotin on the C-terminal lysine (GGGK-biotin)] / mouse Clec9a expressed on HEK-293T cells (pIRES2-EGFP-mClec9a) … (parent complex)
chain 1: WPRFHSSVFHTHGGGK
chain 2: MHAEEIYTSLQWDIPTSEASQKCQSPSKCSGAWCVVTMISCVVCMGLLATSIFLGIKFFQVSSLVLEQQERLIQQDTALVNLTQWQRKYTLEYCQALLQRSLHSGTDASTGPVLLTSPQMVPQTLDSKETGSDCSPCPHNWIQNGKSCYYVFERWEMWNISKKSCLKEGASLFQIDSKEEMEFISSIGKLKGGNKYWVGVFQDGISGSWFWEDGSSPLSDLLPAERQRSAGQICGYLKDSTLISDKCDSWKYFICEKKAFGSCI

The experiment covers variants of B1. The experiment in a line: flow cytometry on cells; parent: 49.6.
chain 2 M157A: the response is 74.2 % of cells in upper-right quadrant (SA+ EGFP+).

Turning to chain 2 W250A, the response is 7.85 % of cells in upper-right quadrant (SA+ EGFP+).

Take chain 2 R154A: the response was 69.6 % of cells in upper-right quadrant (SA+ EGFP+).

Turning to chain 2 W155A, the response is 52.5 % of cells in upper-right quadrant (SA+ EGFP+).

With chain 2 D248A, the response is 11.3 % of cells in upper-right quadrant (SA+ EGFP+).

Take chain 2 I160A: the response is 50.6 % of cells in upper-right quadrant (SA+ EGFP+).

Turning to chain 2 Y252A, the response was 45.4 % of cells in upper-right quadrant (SA+ EGFP+).
